From PMC3175028 (2011)

What was measured:
hedKR [1] = biological target: T1, hedKR (Streptomyces griseoruber, UniProt Q67G28); assay: steady-state kinetics of reduction; assay type: biochemical
hedKR [2] = biological target: T1, hedKR; assay: […] Å co-crystal structure; assay type: binding
hedKR [3] = biological target: T1, hedKR; assay: steady-state inhibition kinetics of trans-1-decalone reduction; assay type: biochemical
O[C@H]1CCCc2ccccc21 = assay: steady-state kinetics of oxidation, A340; assay type: biochemical, Streptomyces griseoruber; conditions: NADP+

Row | Compound | Km (O[C@H]1CCCc2ccccc21) [µM] | kcat (O[C@H]1CCCc2ccccc21) [s⁻¹] | kcat/Km (O[C@H]1CCCc2ccccc21) [M⁻¹ s⁻¹] | further results
1 | O=C1CCC[C@H]2CCCC[C@H]12 (relative stereo) [trans-1-decalone] |  |  |  | Km (hedKR [1]): 591 ± 147 µM
2 | NC(=O)C1=CN([C@@H]2O[C@H](COP(=O)(O)OP(=O)(O)OC[C@H]3O[C@@H](n4cnc5c(N)ncnc54)[C@H](OP(=O)(O)O)[C@@H]3O)[C@@H](O)[C@H]2O)C=CC1 [NADPH] |  |  |  | 2.4 Å co-crystal structure (hedKR [2]): There is clear electron density for NADPH in each monomer of the crystal structure.
3 | O=c1c(O)c(-c2ccc(O)c(O)c2)oc2cc(O)cc(O)c12 [compound 22, quercetin] |  |  |  | Ki (hedKR [3]): ~114 µM
4 | hedKR (Streptomyces griseoruber; N92L) | 4320 ± 521 | 0.169 ± 0.00653 | 39.1 ± 4.96 | 
5 | hedKR (Streptomyces griseoruber; N92P) | 14100 ± 1360 | 0.0323 ± 0.00166 | 2.29 ± 0.249 | 
